Laboratory results taken from patent US20160274110A1 (Novartis, published 2016).

T1: mouse GPR15 (mouse, UniProt Q0VDU3 1-360)
T1 sequence (looked up): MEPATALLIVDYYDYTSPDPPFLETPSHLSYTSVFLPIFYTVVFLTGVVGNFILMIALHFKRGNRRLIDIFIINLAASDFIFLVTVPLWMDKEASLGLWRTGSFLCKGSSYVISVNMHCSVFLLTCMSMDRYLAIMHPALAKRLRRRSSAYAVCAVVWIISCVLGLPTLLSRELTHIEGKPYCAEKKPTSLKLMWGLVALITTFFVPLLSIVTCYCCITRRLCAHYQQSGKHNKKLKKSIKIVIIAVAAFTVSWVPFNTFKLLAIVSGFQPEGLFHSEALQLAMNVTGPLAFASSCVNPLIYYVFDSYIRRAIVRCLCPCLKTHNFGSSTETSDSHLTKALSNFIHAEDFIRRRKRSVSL

T2: human GPR15 (human, UniProt P49685 1-360)
T2 sequence (looked up): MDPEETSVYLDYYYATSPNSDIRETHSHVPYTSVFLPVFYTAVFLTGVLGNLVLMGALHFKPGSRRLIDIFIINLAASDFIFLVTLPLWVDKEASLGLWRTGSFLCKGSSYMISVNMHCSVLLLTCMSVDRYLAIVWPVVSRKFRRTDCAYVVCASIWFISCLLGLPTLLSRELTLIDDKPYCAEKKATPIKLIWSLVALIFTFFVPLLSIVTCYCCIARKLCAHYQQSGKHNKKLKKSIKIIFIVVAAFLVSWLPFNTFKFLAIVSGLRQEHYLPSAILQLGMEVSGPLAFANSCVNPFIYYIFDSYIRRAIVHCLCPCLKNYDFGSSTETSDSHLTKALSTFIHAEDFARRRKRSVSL

B1: c10orf99 1-57, synthetic peptide KRRPAKAWSGRRTRLCCHRVPSPNSTNLKGHHVRLCKPCKLEPEPRLWVVPGALPQV (SEQ ID NO: 6) (ligand)
peptide: KRRPAKAWSGRRTRLCCHRVPSPNSTNLKGHHVRLCKPCKLEPEPRLWVVPGALPQV

Assays:
mouse GPR15 = molecular target: T1, mouse GPR15; test: cell-based or functional assay
human GPR15 = molecular target: T2, human GPR15; test: cell-based or functional assay

Binder | EC50 of GPR15 activation, Aequorin assay (luminescence, calcium) (mouse GPR15) [nM] | EC50 of GPR15 activation, Aequorin assay (luminescence, calcium) (human GPR15) [nM] | EC50 in in vitro cellular assays (aequorin assay; cAMP in CHO-GPR15 and HEK-GPR15 cell lines) (human GPR15) [nM]
QKPQLWVVPGALPQV | ~2000 | ~2000 | –
B1 | – | – | < 10
